{"source": "patent US20130018176A1", "about": "“METHODS OF PRODUCING HYBRIDOMAS AND MONOCLONAL ANTIBODIES AND ANTIBODIES PRODUCED THEREBY” (AMGEN INC., priority 2007, published 2013)", "molecules": {"B1": {"name": "Antibody 26F11: human antibody from Xenomouse, SEQ ID NOs: 187-196 (antibody)", "heavy": "QVQLVESGGGVVQPGRSLRLSCAASGFTFSNYGMHWVRQAPGKGLEWVAVIWYVGSNKYYADSVKGRFTISRDNSKNTLYLQMNSLRAEDTAVYYCARAQEGMAPDAFDIWGQGTMVTVSSASTKGPSVFPLAPCSRSTSESTAALGCLVKDYFPEPVTVSWNSGALTSGVHTFPAVLQSSGLYSLSSVVTVPSSNFGTQTYTCNVDHKPSNTKVDKTVERKCCVECPPCPAPPVAGPSVFLFPPKPKDTLMISRTPEVTCVVVDVSHEDPEVQFNWYVDGVEVHNAKTKPREEQFNSTFRVVSVLTVVHQDWLNGKEYKCKVSNKGLPAPIEKTISKTKGQPREPQVYTLPPSREEMTKNQVSLTCLVKGFYPSDIAVEWESNGQPENNYKTTPPMLDSDGSFFLYSKLTVDKSRWQQGNVFSCSVMHEALHNHYTQKSLSLSPGK", "light": "SYELTQPPSVSVSPGQTASITCSGDKMGERYACWYQQKPGQSPILVIYQDTKRPSGIPERFSGSNSGNTATLTISGTQAMDEADYYCQAWYSSTNVVFGGGTKLTVLGQPKAAPSVTLFPPSSEELQANKATLVCLISDFYPGAVTVAWKADSSPVKAGVETTTPSKQSNNKYAASSYLSLTPEQWKSHRSYSCQVTHEGSTVEKTVAPTECS"}}, "key": {"[1]": {"target": "T1, Ferroportin expressed inducibly in 293 cells (Homo sapiens, UniProt Q9NP59)", "T1 construct": "expressed in transfected cells; host or cells: 293 cells, tetracycline/doxycycline-inducible", "T1 sequence (Q9NP59 1-571)": "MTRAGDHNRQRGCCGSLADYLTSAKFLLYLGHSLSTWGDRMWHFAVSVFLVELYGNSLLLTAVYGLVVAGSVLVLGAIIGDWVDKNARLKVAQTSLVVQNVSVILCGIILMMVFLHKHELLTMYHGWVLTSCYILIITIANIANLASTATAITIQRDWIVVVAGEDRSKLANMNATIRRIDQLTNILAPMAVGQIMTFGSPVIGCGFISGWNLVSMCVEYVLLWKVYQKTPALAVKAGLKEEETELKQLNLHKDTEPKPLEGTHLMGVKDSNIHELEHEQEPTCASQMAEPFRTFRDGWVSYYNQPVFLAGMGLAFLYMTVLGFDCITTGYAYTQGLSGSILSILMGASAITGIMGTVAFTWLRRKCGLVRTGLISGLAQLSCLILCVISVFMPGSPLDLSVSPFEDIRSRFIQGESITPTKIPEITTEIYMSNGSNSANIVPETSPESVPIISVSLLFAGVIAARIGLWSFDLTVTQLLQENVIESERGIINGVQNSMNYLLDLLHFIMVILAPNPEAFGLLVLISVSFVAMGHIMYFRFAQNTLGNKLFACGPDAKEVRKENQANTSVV", "assay": "In vitro hepcidin activity ferritin assay", "type": "cell-based", "conditions": "293 cells with tetracycline-inducible ferroportin; 1 μg/ml hepcidin; 17-20 hours", "protocol": "Human hepcidin purified or produced according to Examples 1, 2, 3 and 4 was assayed for iron-regulating bioactivity in an in vitro cellular assay. […] The action of ferroportin can be reduced in a dose-dependent manner by hepcidin treatment.\n293 cells expressing a tetracycline-inducible ferroportin gene were plated at 50,000 cells per well (70-80% density) in a 96 well BioCoat poly-D Lysine-coated plate in DMEM supplemented with 5% fetal bovine serum and a penicillin/streptomycin/glutamine supplement (Gibco BRL). After an overnight incubation at 37° C. with 5% CO2, the medium was replaced with assay medium (as above, but supplemented with 2.5 μg/ml doxycycline for […], 2.5 μg/ml iron citrate for iron supplemented wells and 1 μg/ml hepcidin for hepcidin treatment wells). The plate was further incubated for 17-20 hours as above before washing the wells in cold PBS and lysing in 120 ul of 1% Triton lysis buffer on ice for 15 minutes. 100 μl of lysates were used for ferritin analysis (Olympus AU400 clinical chemistry analyzer) and 10 μl for BCA protein assay (Pierce). Ferritin results were normalized for protein content."}, "human hepcidin": {"target": "T2, human hepcidin (Homo sapiens, UniProt P81172)", "T2 construct": "The pro-region of the protein was enzymatically cleaved by incubation with Kex protease; made in house; host or cells: E. coli", "T2 sequence (P81172 60-84 limits assumed)": "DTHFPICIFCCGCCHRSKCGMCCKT", "assay": "Neutralization of injected human hepcidin in mice (hypoferremic response)", "type": "in vivo", "conditions": "25 μg i.p. with isotype control antibody; female C57BL/6 mice; two hours", "protocol": "Activity of anti-human hepcidin antibodies was evaluated in vivo in mice that were administered human hepcidin in an amount sufficient to generate a hypoferremic response. On day 0, female C57BL/6 mice were injected subcutaneously with a murine monoclonal antibody (Ab2.7) directed against human hepcidin. Control mice received murine IgG1 as an isotypic control. At day 3, the mice received a single intraperitoneal injection of 25 μg E. coli-derived recombinant human Hepcidin (rhHepc). Serum iron levels were analyzed two hours later. […] Statistics represent ANOVA with a Dunnett's post-hoc test comparing all groups against the saline control."}, "[2]": {"target": "T3, E. coli-derived human hepcidin (Homo sapiens, UniProt P81172)", "T3 construct": "The pro-region of the protein was enzymatically cleaved by incubation with Kex protease; made in house; host or cells: E. coli", "T3 sequence (P81172 60-84 limits assumed)": "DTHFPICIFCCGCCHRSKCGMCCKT", "assay": "Biacore concurrent binding to hepcidin captured on antibody 1S1 surface (sandwich pairing)", "conditions": "20 nM hepcidin on 1S1 surface, then 50 nM antibody", "protocol": "Using Biacore analysis, a surface coated with antibody 1S1 was tested for the concurrent binding of hepcidin and another antibody (FIG. 28). Immobilization of anti-Hepc antibody 1S1 to the sensor chip surface was performed according to manufacturer's instructions using a continuous flow of 0.005% P-20/PBS buffer. Briefly, carboxyl groups on the sensor chip surfaces were activated by injecting 60 μL of a mixture containing 0.2 M N-ethyl-N′-(dimethylaminopropyl)carbodiimide (EDC) and 0.05 M N-hydroxysuccinimide (NHS). This was followed by injecting 1S1 diluted in 10 mM acetate, pH 4.0 at concentrations between 20 μg/mL. Excess reactive groups on the surfaces were deactivated by injecting 60 μL of 1 M ethanolamine. Final immobilized levels were 5,000-6,000 resonance units (RU) for the Ab 1S1 surface. A blank, mock-coupled reference surface was also prepared on the sensor chip. 20 nM E. coli-derived human hepcidin was injected over and bound to the 1S1 antibody surface. Then 50 nM antibody 2.7, 23F11, 26F11, and 1S1 were injected over the hepcidin/1S1 surface. After the antibody injection, the surfaces were regenerated by injecting 30 μL 10 mM HCl pH 2.0."}}, "data": [{"molecule": "hydrogen-DTHFPICIFCCGCCHRSKCGMCCKT-free acid [synthetic hepcidin]", "values": [{"measurement": "iron retention (ferritin)", "setting": "[1]", "value": "increase in iron retention"}]}, {"molecule": "recombinant hepcidin: human hepcidin produced recombinantly according to Examples 2 and 3 (CHO- or E. coli-derived)", "values": [{"measurement": "iron retention (ferritin)", "setting": "[1]", "value": "increase in iron retention"}]}, {"molecule": "rhHepc: E. coli-derived recombinant human Hepcidin", "values": [{"measurement": "serum iron levels after hepcidin injection", "setting": "human hepcidin", "value": "hypoferremia"}]}, {"molecule": "urinary hepcidin: Human hepcidin isolated from urine of sepsis patients", "values": [{"measurement": "iron retention (ferritin)", "setting": "[1]", "value": "increase in iron retention"}]}, {"molecule": "B1", "values": [{"measurement": "ability to bind hepcidin concurrently with 1S1 (sandwich pair)", "setting": "[2]", "value": "markedly lower ability to bind to hepcidin concurrently with 1S1"}]}]}
